Laboratory results reported in the supplement of paper PMC10065799, “High-throughput profiling of sequence recognition by tyrosine kinases and SH2 domains using bacterial peptide display” (eLife, 2023).

Columns and labels:
Fyn = Fyn (UniProt P06241); assay: phosphorylation enrichment, bacterial display (enrichment ratio); higher = better substrate or ligand; peptides without Tyr show the background
Jak2 = Jak2 (UniProt O60674); assay: as above
EPHB2 = EPHB2 (UniProt P29323); assay: as above
Fer (mouse) = assay: as above
Fes = Fes (UniProt P07332); assay: as above
Hck = Hck (UniProt P08631); assay: as above
FGFR1 = FGFR1 (UniProt P11362); assay: as above
c-Abl (mouse) = assay: as above
FGFR3 = FGFR3 (UniProt P22607); assay: as above
EPHB1 = EPHB1 (UniProt P54762); assay: as above
AncSZ = assay: as above
MERTK = MERTK (UniProt Q12866); assay: as above
c-Src = assay: as above
SHP2-C SH2 = assay: SH2 binding enrichment of the phosphorylated peptide, bacterial display (enrichment ratio); higher = better substrate or ligand; peptides without Tyr show the background
Grb2 SH2 = Grb2 SH2 (UniProt P62993); assay: as above
c-Src SH2 = assay: as above
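Wherever SH2 binding enrichment of the phosphorylated peptide, bacterial display is given: peptide library displayed on the E. coli surface as eCPX fusions, selected cells deep-sequenced, score is each peptide's frequency after selection divided by its frequency in the input.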
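Wherever phosphorylation enrichment, bacterial display is given: 11-residue human phosphosite peptides and single-mutation variants displayed on the E. coli surface, counted by deep sequencing, each peptide's frequency after selection divided by its frequency in the unselected input library; frequency after pTyr selection over input frequency; kinase dosed for 20-30% of maximal phosphorylation in three min.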

EPHB2, sequence (P29323 whole entry, looked up): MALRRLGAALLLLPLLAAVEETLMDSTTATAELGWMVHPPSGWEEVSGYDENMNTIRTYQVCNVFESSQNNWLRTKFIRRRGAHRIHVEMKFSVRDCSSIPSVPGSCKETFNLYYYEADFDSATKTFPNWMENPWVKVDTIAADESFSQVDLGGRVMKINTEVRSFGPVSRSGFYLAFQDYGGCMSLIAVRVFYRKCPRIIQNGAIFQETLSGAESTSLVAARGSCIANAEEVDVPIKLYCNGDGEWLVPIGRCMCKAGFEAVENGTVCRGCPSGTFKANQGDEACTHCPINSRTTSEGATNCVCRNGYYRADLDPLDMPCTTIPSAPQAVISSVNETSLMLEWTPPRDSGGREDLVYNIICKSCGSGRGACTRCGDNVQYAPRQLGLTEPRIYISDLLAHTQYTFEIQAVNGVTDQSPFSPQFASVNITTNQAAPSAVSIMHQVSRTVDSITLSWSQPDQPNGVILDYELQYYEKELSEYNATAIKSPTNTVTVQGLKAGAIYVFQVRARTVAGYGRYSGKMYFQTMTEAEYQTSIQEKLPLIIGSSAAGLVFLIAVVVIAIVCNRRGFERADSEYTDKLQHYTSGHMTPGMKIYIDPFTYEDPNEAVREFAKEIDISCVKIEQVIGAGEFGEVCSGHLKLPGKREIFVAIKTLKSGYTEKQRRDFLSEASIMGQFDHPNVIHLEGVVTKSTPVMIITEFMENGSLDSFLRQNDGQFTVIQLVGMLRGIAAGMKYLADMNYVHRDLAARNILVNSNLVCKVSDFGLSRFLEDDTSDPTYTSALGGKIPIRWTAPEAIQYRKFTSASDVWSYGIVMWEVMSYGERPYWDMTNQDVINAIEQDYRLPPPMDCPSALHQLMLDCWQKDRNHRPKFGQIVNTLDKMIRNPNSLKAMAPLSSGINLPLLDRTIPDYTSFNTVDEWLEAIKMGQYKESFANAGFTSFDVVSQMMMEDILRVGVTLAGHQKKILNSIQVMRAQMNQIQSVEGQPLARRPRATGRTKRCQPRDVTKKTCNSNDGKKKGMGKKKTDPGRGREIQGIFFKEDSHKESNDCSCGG
Fes, sequence (P07332 whole entry, looked up): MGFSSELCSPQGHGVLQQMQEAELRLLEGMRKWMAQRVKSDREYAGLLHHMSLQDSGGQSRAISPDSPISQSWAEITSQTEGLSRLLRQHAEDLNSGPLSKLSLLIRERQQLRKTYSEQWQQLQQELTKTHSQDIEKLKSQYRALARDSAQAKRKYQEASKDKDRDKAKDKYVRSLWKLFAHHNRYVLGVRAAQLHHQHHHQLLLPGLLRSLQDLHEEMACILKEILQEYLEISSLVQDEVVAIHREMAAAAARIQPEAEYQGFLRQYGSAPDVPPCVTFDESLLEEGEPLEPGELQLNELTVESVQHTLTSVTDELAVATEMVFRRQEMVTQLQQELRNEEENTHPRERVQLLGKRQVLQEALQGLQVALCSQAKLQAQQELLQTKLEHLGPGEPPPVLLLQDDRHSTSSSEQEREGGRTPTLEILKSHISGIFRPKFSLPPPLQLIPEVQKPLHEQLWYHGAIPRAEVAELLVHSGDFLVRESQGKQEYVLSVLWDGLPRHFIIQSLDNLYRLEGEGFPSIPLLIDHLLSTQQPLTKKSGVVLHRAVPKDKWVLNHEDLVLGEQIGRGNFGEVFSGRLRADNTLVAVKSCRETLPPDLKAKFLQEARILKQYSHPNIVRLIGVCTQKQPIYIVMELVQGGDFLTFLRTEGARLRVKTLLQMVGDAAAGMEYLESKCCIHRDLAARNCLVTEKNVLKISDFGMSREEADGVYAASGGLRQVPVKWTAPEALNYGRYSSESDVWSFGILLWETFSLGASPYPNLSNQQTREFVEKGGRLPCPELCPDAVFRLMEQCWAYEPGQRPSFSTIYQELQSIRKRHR
MERTK, sequence (Q12866 whole entry, looked up): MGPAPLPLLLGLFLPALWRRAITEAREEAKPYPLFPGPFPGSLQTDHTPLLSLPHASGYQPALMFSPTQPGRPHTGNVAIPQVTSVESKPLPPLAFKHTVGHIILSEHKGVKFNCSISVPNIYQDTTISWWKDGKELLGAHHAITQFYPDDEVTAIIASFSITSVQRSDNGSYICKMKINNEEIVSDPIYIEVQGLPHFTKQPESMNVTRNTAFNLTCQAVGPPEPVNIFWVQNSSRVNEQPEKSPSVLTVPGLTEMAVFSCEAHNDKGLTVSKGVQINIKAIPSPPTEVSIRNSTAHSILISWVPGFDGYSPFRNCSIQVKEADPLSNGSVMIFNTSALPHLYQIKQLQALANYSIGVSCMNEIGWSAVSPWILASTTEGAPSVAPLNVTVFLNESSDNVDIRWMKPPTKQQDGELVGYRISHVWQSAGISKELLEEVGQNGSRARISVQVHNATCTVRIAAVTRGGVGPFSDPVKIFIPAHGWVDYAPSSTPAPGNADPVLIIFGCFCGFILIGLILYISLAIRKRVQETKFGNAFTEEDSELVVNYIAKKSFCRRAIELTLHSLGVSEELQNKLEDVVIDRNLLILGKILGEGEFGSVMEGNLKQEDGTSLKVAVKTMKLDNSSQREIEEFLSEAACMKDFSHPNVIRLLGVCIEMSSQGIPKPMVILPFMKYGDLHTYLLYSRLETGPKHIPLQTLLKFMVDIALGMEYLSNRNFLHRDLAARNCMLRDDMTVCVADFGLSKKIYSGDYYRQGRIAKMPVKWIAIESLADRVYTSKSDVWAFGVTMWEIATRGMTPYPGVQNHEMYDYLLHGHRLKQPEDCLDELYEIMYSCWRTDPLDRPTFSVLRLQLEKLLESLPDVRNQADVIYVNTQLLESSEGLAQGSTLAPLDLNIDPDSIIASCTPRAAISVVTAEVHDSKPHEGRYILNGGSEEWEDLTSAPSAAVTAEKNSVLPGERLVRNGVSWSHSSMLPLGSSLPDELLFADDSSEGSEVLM
EPHB1, sequence (P54762 whole entry, looked up): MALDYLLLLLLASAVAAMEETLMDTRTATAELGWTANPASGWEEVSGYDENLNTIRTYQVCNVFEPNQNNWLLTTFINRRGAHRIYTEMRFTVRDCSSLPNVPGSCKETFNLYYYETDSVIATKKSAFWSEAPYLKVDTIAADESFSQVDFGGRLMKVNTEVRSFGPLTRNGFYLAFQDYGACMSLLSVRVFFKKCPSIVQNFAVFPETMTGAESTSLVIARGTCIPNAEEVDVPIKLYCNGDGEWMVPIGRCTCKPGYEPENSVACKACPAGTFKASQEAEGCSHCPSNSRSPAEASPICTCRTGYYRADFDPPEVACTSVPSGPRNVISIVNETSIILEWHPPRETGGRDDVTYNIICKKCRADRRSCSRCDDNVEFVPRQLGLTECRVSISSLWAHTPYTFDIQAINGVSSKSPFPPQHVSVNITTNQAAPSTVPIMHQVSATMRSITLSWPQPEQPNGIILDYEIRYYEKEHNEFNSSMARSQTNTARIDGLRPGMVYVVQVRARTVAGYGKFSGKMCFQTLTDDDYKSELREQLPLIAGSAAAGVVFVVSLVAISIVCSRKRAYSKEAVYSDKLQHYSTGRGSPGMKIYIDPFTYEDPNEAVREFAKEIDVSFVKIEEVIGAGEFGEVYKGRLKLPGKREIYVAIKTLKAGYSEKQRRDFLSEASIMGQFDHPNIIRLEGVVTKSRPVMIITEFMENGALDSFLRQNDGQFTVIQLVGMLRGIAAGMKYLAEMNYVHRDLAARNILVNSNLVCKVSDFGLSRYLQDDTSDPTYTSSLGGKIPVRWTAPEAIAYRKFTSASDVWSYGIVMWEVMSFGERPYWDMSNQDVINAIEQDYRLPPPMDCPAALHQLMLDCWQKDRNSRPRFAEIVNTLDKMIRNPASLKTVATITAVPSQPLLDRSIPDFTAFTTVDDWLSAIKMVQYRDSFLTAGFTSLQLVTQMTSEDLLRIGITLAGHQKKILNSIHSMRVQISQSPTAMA
Jak2, sequence (O60674 whole entry, looked up): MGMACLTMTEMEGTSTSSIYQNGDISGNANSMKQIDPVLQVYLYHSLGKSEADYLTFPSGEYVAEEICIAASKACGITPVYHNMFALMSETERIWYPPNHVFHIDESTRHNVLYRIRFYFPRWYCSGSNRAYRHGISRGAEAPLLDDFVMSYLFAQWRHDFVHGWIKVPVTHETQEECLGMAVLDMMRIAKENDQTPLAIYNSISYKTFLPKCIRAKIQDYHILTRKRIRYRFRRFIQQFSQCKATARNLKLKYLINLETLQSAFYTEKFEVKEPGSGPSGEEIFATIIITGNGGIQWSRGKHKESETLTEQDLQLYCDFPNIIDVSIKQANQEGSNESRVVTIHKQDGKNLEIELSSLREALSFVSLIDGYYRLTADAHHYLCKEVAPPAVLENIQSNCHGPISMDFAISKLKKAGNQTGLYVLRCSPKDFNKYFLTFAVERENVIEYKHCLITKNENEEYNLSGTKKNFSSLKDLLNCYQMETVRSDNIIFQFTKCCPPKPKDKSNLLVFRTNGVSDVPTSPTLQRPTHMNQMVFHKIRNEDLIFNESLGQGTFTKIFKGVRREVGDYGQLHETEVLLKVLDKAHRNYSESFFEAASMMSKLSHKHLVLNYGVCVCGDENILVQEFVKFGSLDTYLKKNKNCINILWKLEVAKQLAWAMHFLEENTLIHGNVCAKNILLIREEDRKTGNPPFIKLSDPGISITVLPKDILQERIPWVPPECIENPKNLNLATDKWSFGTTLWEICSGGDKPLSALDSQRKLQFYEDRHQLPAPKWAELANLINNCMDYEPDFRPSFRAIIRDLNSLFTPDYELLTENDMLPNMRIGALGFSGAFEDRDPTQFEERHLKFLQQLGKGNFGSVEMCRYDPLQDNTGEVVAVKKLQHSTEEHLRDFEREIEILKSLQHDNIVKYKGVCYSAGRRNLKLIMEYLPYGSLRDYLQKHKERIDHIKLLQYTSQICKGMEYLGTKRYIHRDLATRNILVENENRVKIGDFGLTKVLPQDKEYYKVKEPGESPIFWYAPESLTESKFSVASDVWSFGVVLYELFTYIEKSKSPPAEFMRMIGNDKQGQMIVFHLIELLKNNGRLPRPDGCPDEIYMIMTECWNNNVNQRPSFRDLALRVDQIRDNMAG

Row | Sequence | SH2 binding enrichment (SHP2-C SH2) | SH2 binding enrichment (Grb2 SH2) | SH2 binding enrichment (c-Src SH2) | phosphorylation enrichment (Fyn) | phosphorylation enrichment (Jak2) | phosphorylation enrichment (EPHB2) | phosphorylation enrichment (Fer (mouse)) | phosphorylation enrichment (Fes) | phosphorylation enrichment (Hck) | phosphorylation enrichment (FGFR1) | phosphorylation enrichment (c-Abl (mouse)) | phosphorylation enrichment (FGFR3) | phosphorylation enrichment (EPHB1) | phosphorylation enrichment (AncSZ) | phosphorylation enrichment (MERTK) | phosphorylation enrichment (c-Src)
1 | KVKPIYFRTQG [AR_Y916_H918R] | 1.76 | 1.63 | 1.51 | 0.404 | 0.491 | 0.396 | 0.477 | 0.644 | 0.495 | 0.475 | 0.626 | 0.448 | 0.356 | 0.701 | 0.401 | 0.454
2 | KYVKMYDNHQL [MYO9A_Y203] | 0.76 | 0.808 | 1.3 | 0.46 | 0.51 | 0.448 | 0.441 | 0.726 | 0.489 | 0.557 | 0.696 | 0.432 | 0.481 | 0.552 | 0.544 | 0.418
3 | LAAAGYDVKKN [H1-3_Y72_E75K] | 0.734 | 0.66 | 0.323 | 0.319 | 0.381 | 0.249 | 0.305 | 0.591 | 0.288 | 0.383 | 0.414 | 0.331 | 0.355 | 0.414 | 0.28 | 0.324
4 | LAEMNYVHQDL [EPHB1_Y740_R743Q] | 0.923 | 0.983 | 0.445 | 0.674 | 0.744 | 0.72 | 0.716 | 1.22 | 0.51 | 0.581 | 0.533 | 1.01 | 1.37 | 1.12 | 0.46 | 0.411
5 | LAVNPYGPPDL | 0.873 | 0.89 | 0.515 | 0.708 | 1.03 | 0.408 | 0.77 | 1.23 | 0.682 | 0.798 | 1.32 | 0.911 | 0.846 | 1.36 | 0.517 | 0.611
6 | LCHELYNTIRD [PBRM1_Y54_V49L] | 1.04 | 1.21 | 4 | 1 | 2.44 | 0.785 | 0.869 | 1.03 | 6.12 | 0.973 | 0.929 | 0.905 | 0.675 | 1.21 | 0.796 | 3.39
7 | LDFNEYFRDLN [HPRT1_Y198_YF] | 0.604 | 1.01 | 0.552 | 0.465 | 0.998 | 0.461 | 0.382 | 1.15 | 0.486 | 0.513 | 0.606 | 0.697 | 0.442 | 1.24 | 0.423 | 0.473
8 | LDLPGYCLLRE [CCDC116_Y291_P293L] | 0.674 | 0.686 | 0.661 | 0.908 | 2.21 | 1.28 | 1.63 | 2.21 | 0.636 | 1.03 | 1.65 | 1.39 | 1.88 | 1.82 | 0.765 | 0.736
9 | LDLSFYPTSSS [EMD_Y182_YF] | 0.686 | 0.698 | 0.417 | 0.968 | 0.976 | 0.904 | 0.799 | 1.77 | 0.89 | 0.991 | 1.69 | 0.902 | 1.33 | 1.42 | 0.596 | 0.404
10 | LEHCQYVTEKV [ALDOB_Y204] | 0.821 | 0.756 | 0.744 | 1.59 | 1.68 | 1.55 | 1.91 | 2.85 | 0.839 | 1.6 | 1.18 | 1.91 | 1.74 | 1.83 | 1.04 | 0.822
11 | LENSTYQYIRV [CRB1_Y760] | 8.46 | 1.55 | 1.72 | 5.14 | 1.11 | 5.02 | 25.5 | 1.86 | 10.9 | 13 | 0.91 | 7.65 | 12.1 | 2.11 | 7.03 | 3.07
12 | LERFIYNREEF [HLA-DPB1_Y59_F64Y_YF] | 0.631 | 0.704 | 0.607 | 1.08 | 1.39 | 0.76 | 0.719 | 1.49 | 1.29 | 0.632 | 0.857 | 1.79 | 0.63 | 1.68 | 0.652 | 2.07
13 | LGGSPYPGVPV [FGFR1_Y701] | 0.874 | 0.873 | 0.546 | 0.524 | 0.503 | 0.615 | 0.413 | 0.881 | 0.481 | 0.514 | 0.675 | 0.463 | 0.493 | 0.591 | 0.4 | 0.359
14 | LGMSQYFRLFN [CPT2_Y217_D213G] | 3.46 | 1.06 | 0.805 | 0.364 | 3.24 | 0.839 | 0.499 | 1.26 | 0.64 | 0.704 | 0.581 | 0.766 | 0.601 | 0.966 | 0.58 | 0.381
15 | LGNIVYSSLCG [BCOR_Y90_P85L] | 1.44 | 0.778 | 0.551 | 4.98 | 2.02 | 1.39 | 1.74 | 2.15 | 6.67 | 1.05 | 2.48 | 1.54 | 1.47 | 2.1 | 2.66 | 5.82
16 | LHRHAYPEQRQ [DPPA2_Y127] | 1.11 | 1.14 | 1.19 | 0.502 | 0.53 | 0.594 | 0.532 | 0.967 | 0.704 | 0.505 | 0.789 | 0.577 | 0.434 | 0.619 | 0.487 | 0.449
17 | LIQRNYKLAAQ [ALPK2_Y1975] | 0.649 | 0.961 | 0.399 | 0.571 | 0.44 | 0.604 | 0.576 | 1.21 | 0.833 | 0.937 | 0.773 | 0.962 | 1.13 | 1.19 | 0.72 | 0.49
18 | LIYTNYEVGKD [GSTP1_Y112_A114V] | 1.09 | 1.12 | 0.801 | 11.9 | 1.33 | 16.8 | 17.7 | 1.96 | 8.89 | 7.05 | 14.1 | 5.54 | 13.4 | 2.37 | 11.3 | 8.72
19 | LKRCQYVTEKV [ALDOA_Y204] | 0.654 | 0.742 | 0.53 | 0.823 | 2.26 | 0.89 | 0.794 | 1.75 | 0.689 | 1.11 | 1.24 | 0.924 | 1.9 | 1.59 | 0.672 | 0.796
20 | LLLLFCVVRYC [MPZ_Y177_Y177C] | 1.58 | 2.53 | 1.41 | 1.78 | 3.14 | 2.48 | 1.14 | 2.07 | 2.16 | 3.08 | 4.58 | 2.14 | 2.47 | 3.01 | 2.94 | 2.84

Second part, led by results:

Row | SH2 binding enrichment (SHP2-C SH2) | SH2 binding enrichment (Grb2 SH2) | SH2 binding enrichment (c-Src SH2) | Sequence | phosphorylation enrichment (Fyn) | phosphorylation enrichment (Jak2) | phosphorylation enrichment (EPHB2) | phosphorylation enrichment (Fer (mouse)) | phosphorylation enrichment (Fes) | phosphorylation enrichment (Hck) | phosphorylation enrichment (FGFR1) | phosphorylation enrichment (c-Abl (mouse)) | phosphorylation enrichment (FGFR3) | phosphorylation enrichment (EPHB1) | phosphorylation enrichment (AncSZ) | phosphorylation enrichment (MERTK) | phosphorylation enrichment (c-Src)
21 | 1.35 | 1.49 | 1.22 | KWHREYNFKYV [RICTOR_Y835_S837F] | 0.394 | 0.693 | 0.392 | 0.357 | 0.786 | 0.397 | 0.358 | 0.528 | 0.564 | 0.454 | 1.04 | 0.376 | 0.38
22 | 0.291 | 0.604 | 0.39 | LEDDVYRKTCT [XPA_Y257_M256V] | 1 | 2.14 | 0.724 | 1.09 | 2.07 | 1.17 | 1.05 | 1.74 | 2.23 | 1.14 | 1.89 | 0.864 | 1.2
23 | 3.38 | 1.03 | 1.02 | LEKISYVYMKR [SSX7_Y48] | 1.21 | 1.37 | 1.37 | 0.875 | 1.75 | 1.18 | 0.784 | 1.3 | 1.32 | 1.23 | 1.72 | 0.81 | 0.547
24 | 1.02 | 1.53 | 1.01 | LFLALYTGLVR [PIGB_Y402_H407R] | 0.82 | 1.18 | 0.573 | 0.539 | 1.24 | 1.59 | 0.452 | 0.896 | 0.747 | 0.628 | 1.31 | 0.759 | 1.66
25 | 1.5 | 0.777 | 1.65 | LGKGSYAKVKS [TSSK2_Y23] | 1.37 | 1.54 | 0.875 | 0.693 | 1.83 | 0.985 | 0.955 | 1.26 | 0.844 | 0.482 | 0.884 | 1.11 | 1.53
26 | 2.14 | 1.73 | 2.29 | LGKGSYAKVRS [TSSK2_Y23_K27R] | 0.725 | 1.33 | 0.408 | 0.626 | 0.733 | 0.586 | 0.558 | 1.12 | 0.699 | 0.395 | 1.02 | 0.744 | 0.792
27 | 0.576 | 0.723 | 0.396 | LGSNGYKKLLK [SEPSECS_Y334] | 0.879 | 0.59 | 0.437 | 0.351 | 0.841 | 0.635 | 0.338 | 0.543 | 0.636 | 0.42 | 0.697 | 0.773 | 0.755
28 | 0.513 | 0.756 | 0.536 | LHQSTYQCYDV [SLC7A14_Y693_R695C] | 3.95 | 1.31 | 2.85 | 2.84 | 1.53 | 2.78 | 1.12 | 1.35 | 1.2 | 2.12 | 1.82 | 1.06 | 5.21
29 | 1.22 | 1.06 | 0.776 | LLGFLYFFVCS [SLC34A2_Y109] | 1.26 | 2.88 | 1.76 | 1.43 | 3.17 | 0.948 | 1.03 | 2.89 | 1.81 | 1.17 | 1.66 | 1.04 | 2.1
30 | 1.76 | 2.19 | 1.21 | LLILEYAKFGS [RET_Y806_V804L_YF] | 1.01 | 1.15 | 0.991 | 0.699 | 1.52 | 0.901 | 0.85 | 0.635 | 1.38 | 1.49 | 1.34 | 0.585 | 0.976
31 | 0.444 | 0.964 | 1.95 | LLKAKYELLNA [POLR3A_Y714] | 0.466 | 0.707 | 0.491 | 0.423 | 0.614 | 0.496 | 0.423 | 0.544 | 0.493 | 0.454 | 0.582 | 0.418 | 0.405
32 | 0.618 | 0.685 | 0.833 | LLNPSYNLPLD [TOM1L1_Y109_R108S] | 0.979 | 0.908 | 0.711 | 0.808 | 1.45 | 1.07 | 0.595 | 0.855 | 1.14 | 1.26 | 1.22 | 0.854 | 0.523
33 | 2.37 | 2.16 | 0.829 | LLVVVYKYRCY [PSEN1_Y154_L153V] | 0.703 | 0.994 | 1.22 | 1.25 | 3.48 | 1.08 | 1.08 | 1.65 | 1.22 | 2.05 | 2 | 0.474 | 0.662
